# Assay results published in patent US20050186662A1.
# Biological target: neonatal Fc receptor (FcRn) of the neonatal rat small intestine (rat) (UniProt P13599)
# Assay: cell-based or functional assay
# Chain of UniProt P13599 (P13599 23-366, form in doubt): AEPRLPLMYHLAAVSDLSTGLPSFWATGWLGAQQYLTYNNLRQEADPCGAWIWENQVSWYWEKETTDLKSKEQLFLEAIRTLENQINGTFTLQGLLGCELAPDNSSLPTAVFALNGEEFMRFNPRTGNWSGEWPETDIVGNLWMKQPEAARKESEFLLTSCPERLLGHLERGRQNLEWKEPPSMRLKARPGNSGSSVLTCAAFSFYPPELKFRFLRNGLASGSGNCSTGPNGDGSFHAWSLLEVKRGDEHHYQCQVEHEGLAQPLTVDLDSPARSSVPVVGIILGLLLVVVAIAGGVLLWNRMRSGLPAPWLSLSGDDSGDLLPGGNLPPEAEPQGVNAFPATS
row,"reduction in transport (oral delivery of 125I-labelled protein into neonatal rat serum) in the presence of 300-fold excess unlabeled human IgG1, by phosphorimage analysis [%]",Substance
1,83,single-chain FSH-Fc (from UniProt P01225 19-129; P01215 25-116) (Fc fusion)
2,53,heterodimer FSH-Fc (Fc fusion)
